Reference: paper PMC9352680, “A comprehensive thermodynamic model for RNA binding by the Saccharomyces cerevisiae Pumilio protein PUF4”

Target: T1, PUF4 RNA-binding domain (Saccharomyces cerevisiae, UniProt P25339 537-888)
T1 sequence: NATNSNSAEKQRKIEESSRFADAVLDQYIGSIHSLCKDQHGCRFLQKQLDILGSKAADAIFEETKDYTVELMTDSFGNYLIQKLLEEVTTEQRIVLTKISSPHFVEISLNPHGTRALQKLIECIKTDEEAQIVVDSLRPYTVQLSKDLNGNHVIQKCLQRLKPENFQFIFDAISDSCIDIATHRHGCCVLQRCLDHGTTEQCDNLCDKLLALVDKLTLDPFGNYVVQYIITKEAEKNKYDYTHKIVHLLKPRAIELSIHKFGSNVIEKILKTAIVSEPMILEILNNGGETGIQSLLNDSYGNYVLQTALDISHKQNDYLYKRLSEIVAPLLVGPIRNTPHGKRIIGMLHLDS
Assay: Mg; RNA-MaP; 20 mM Na-HEPES pH 7.4, 30 mM KOAc, 0.75 mM MgCl2, 0.1% Tween-20, 5% glycerol, 0.1 mg/mL BSA, 2 mM DTT; 25 C; 0.0125-409.6 nM protein
Conditions: tags: N-His6-TEV cleaved; C-SNAP kept, Cy3B-labelled; label: tethered on chip by stalled RNA polymerase

For UCUCUUUCUAUUUUUAUCUCUU (ssRNA) [Ib_S1_P5E.1_K5.1_C5.1_H5.1_[G2C]_A5.1_[A7T]_F5.1_T5.1], the Kd was > 2300 nM.

UCUCUUUUUAUUUUUAUCUCUU (ssRNA) [Ib_S1_P5E.1_K5.1_C5.1_H5.1_[G2T]_A5.1_[A7T]_F5.1_T5.1] was tested, and the Kd was > 2300 nM.

With UCUCUUUGUAUAAUUAUCUCUU (ssRNA) [Ia_S1_P5E.1_K5.1_C5.1_H5.1_A5.1_[T6A]_F5.1_T5.1] the Kd was 5.23 nM.

UCUCUUUUUAUUCUUAUCUCUU (ssRNA) [Ib_S1_P5E.1_K5.1_C5.1_H5.1_[G2T]_A5.1_[A7C]_F5.1_T5.1] was tested, and the Kd was > 2300 nM.

B1: Id_ii_S4_P4E.2_K4.1_C4.2_[T-1G]_H4.1_A4.1_F4.1_T4.2_[G10A]_[T11G] (ssRNA)
RNA: UUUGACAACUGAUCGUUCUUUCUCGUGUAUAUUAAGUUCUUUCUCGAUCAGUUGUCUUU
B1 showed a Kd of 1.39 nM.

B2: Id_ii_S4_P4E.3_K4.2_C4.2_H4.2_A4.1_F4.1_T4.2_[G10C] (ssRNA)
RNA: UUUGACAACUGAUCGUUCUUUCUCUUAUAUAUUACUUUCUUUCUCGAUCAGUUGUCUUU
B2 showed a Kd of 5.15 nM.

B3: Id_ii_S4_P4E.2_K4.1_C4.2_H4.1_A4.1_F4.1_T4.2_[G10A]_[T11A] (ssRNA)
RNA: UUUGACAACUGAUCGUUCUUUCUCUUGUAUAUUAAAUUCUUUCUCGAUCAGUUGUCUUU
Work on B3 yielded a Kd of 0.422 nM.

B4: Id_ii_S4_P4E.3_K4.2_C4.2_[C-2T]_[T-1C]_H4.2_A4.1_F4.1_T4.2_[G10A] (ssRNA)
RNA: UUUGACAACUGAUCGUUCUUUCUUCUAUAUAUUAAUUUCUUUCUCGAUCAGUUGUCUUU
B4 was tested, and the Kd was 10.2 nM.

B5: Id_ii_S4_P4E.3_K4.2_C4.2_[T-1A]_H4.2_A4.1_F4.1_T4.2_[G10C]_[T11A] (ssRNA)
RNA: UUUGACAACUGAUCGUUCUUUCUCAUAUAUAUUACAUUCUUUCUCGAUCAGUUGUCUUU
Work on B5 yielded a Kd of 23 nM.

B6: Id_ii_S4_P4E.3_K4.2_C4.2_[C-2A]_[T-1A]_H4.2_A4.1_F4.1_T4.2_[G10C]_[T11C] (ssRNA)
RNA: UUUGACAACUGAUCGUUCUUUCUAAUAUAUAUUACCUUCUUUCUCGAUCAGUUGUCUUU
In the case of B6, the Kd is reported as 47.7 nM.

B7: Id_ii_S4_P4E.3_K4.2_C4.2_[C-2G]_H4.2_A4.1_F4.1_T4.2_[G10T] (ssRNA)
RNA: UUUGACAACUGAUCGUUCUUUCUGUUAUAUAUUAUUUUCUUUCUCGAUCAGUUGUCUUU
B7 was tested, and the Kd was 10.6 nM.

B8: Id_ii_S4_P4E.2_K4.1_C4.2_[T-1G]_H4.1_A4.1_F4.1_T4.2 (ssRNA)
RNA: UUUGACAACUGAUCGUUCUUUCUCGUGUAUAUUAGUUUCUUUCUCGAUCAGUUGUCUUU
B8 gave a Kd of 0.364 nM.

B9: Id_ii_S4_P4E.3_K4.2_C4.2_[C-2G]_[T-1C]_H4.2_A4.1_F4.1_T4.2_[G10T]_[T11C] (ssRNA)
RNA: UUUGACAACUGAUCGUUCUUUCUGCUAUAUAUUAUCUUCUUUCUCGAUCAGUUGUCUUU
For B9, the Kd was 19.6 nM.

B10: Id_ii_S4_P4E.3_K4.2_C4.2_[C-2A]_[T-1A]_H4.2_A4.1_F4.1_T4.2_[G10C]_[T11G] (ssRNA)
RNA: UUUGACAACUGAUCGUUCUUUCUAAUAUAUAUUACGUUCUUUCUCGAUCAGUUGUCUUU
In the case of B10, the Kd is reported as 189 nM.

B11: Id_ii_S4_P4E.2_K4.1_C4.2_[T-1C]_H4.1_A4.1_F4.1_T4.2_[G10A]_[T11A] (ssRNA)
RNA: UUUGACAACUGAUCGUUCUUUCUCCUGUAUAUUAAAUUCUUUCUCGAUCAGUUGUCUUU
Work on B11 yielded a Kd of 0.435 nM.

B12: Id_ii_S4_P4E.3_K4.2_C4.2_[T-1G]_H4.2_A4.1_F4.1_T4.2 (ssRNA)
RNA: UUUGACAACUGAUCGUUCUUUCUCGUAUAUAUUAGUUUCUUUCUCGAUCAGUUGUCUUU
B12 showed a Kd of 8.91 nM.

B13: Id_ii_S4_P4E.3_K4.2_C4.2_[C-2T]_H4.2_A4.1_F4.1_T4.2_[G10T]_[T11A] (ssRNA)
RNA: UUUGACAACUGAUCGUUCUUUCUUUUAUAUAUUAUAUUCUUUCUCGAUCAGUUGUCUUU
For B13, the Kd was 25.9 nM.

B14: Id_ii_S4_P4E.3_K4.2_C4.2_[T-1C]_H4.2_A4.1_F4.1_T4.2_[G10C]_[T11G] (ssRNA)
RNA: UUUGACAACUGAUCGUUCUUUCUCCUAUAUAUUACGUUCUUUCUCGAUCAGUUGUCUUU
For B14, the Kd was 9.21 nM.

B15: Id_ii_S4_P4E.2_K4.1_C4.2_[T-1C]_H4.1_A4.1_F4.1_T4.2_[G10T]_[T11G] (ssRNA)
RNA: UUUGACAACUGAUCGUUCUUUCUCCUGUAUAUUAUGUUCUUUCUCGAUCAGUUGUCUUU
In the case of B15, the Kd is reported as 0.173 nM.

B16: Id_ii_S4_P4E.2_K4.1_C4.2_[T-1A]_H4.1_A4.1_F4.1_T4.2_[G10A] (ssRNA)
RNA: UUUGACAACUGAUCGUUCUUUCUCAUGUAUAUUAAUUUCUUUCUCGAUCAGUUGUCUUU
For B16, the Kd was 0.453 nM.

B17: Id_ii_S4_P4E.3_K4.2_C4.2_[C-2T]_[T-1G]_H4.2_A4.1_F4.1_T4.2_[G10A]_[T11C] (ssRNA)
RNA: UUUGACAACUGAUCGUUCUUUCUUGUAUAUAUUAACUUCUUUCUCGAUCAGUUGUCUUU
In the case of B17, the Kd is reported as 3.87 nM.

B18: Id_ii_S4_P4E.3_K4.2_C4.2_[C-2T]_H4.2_A4.1_F4.1_T4.2_[G10T]_[T11G] (ssRNA)
RNA: UUUGACAACUGAUCGUUCUUUCUUUUAUAUAUUAUGUUCUUUCUCGAUCAGUUGUCUUU
B18 gave a Kd of 8.62 nM.

B19: Id_ii_S4_P4E.3_K4.2_C4.2_[C-2T]_[T-1C]_H4.2_A4.1_F4.1_T4.2_[G10C]_[T11A] (ssRNA)
RNA: UUUGACAACUGAUCGUUCUUUCUUCUAUAUAUUACAUUCUUUCUCGAUCAGUUGUCUUU
For B19, the Kd was 12.6 nM.

B20: Id_ii_S4_P4E.3_K4.2_C4.2_[C-2A]_[T-1C]_H4.2_A4.1_F4.1_T4.2_[G10T]_[T11A] (ssRNA)
RNA: UUUGACAACUGAUCGUUCUUUCUACUAUAUAUUAUAUUCUUUCUCGAUCAGUUGUCUUU
B20 was tested, and the Kd was 24.6 nM.
